In paper doi:10.1101/2024.01.22.576655:
pKd: −log10 of the molar value.

Key:
[1] = target: RNC_(1-646) (Escherichia coli BL21(DE3)); assay: co-sedimentation
[2] = target: RNC_(1-180) (Escherichia coli BL21(DE3)); assay: co-sedimentation
longer NCs = assay: co-sedimentation
[3] = target: β-gal RNCs purified in low-salt buffer without the second sucrose cushion; assay: affinity purification with mass spectrometry
[4] = target: BADAN-labelled TF_(R14C) (Escherichia coli) (UniProt P0A850); assay: other fluorescence titration

DnaJ (endogenous), sequence (P08622 whole entry): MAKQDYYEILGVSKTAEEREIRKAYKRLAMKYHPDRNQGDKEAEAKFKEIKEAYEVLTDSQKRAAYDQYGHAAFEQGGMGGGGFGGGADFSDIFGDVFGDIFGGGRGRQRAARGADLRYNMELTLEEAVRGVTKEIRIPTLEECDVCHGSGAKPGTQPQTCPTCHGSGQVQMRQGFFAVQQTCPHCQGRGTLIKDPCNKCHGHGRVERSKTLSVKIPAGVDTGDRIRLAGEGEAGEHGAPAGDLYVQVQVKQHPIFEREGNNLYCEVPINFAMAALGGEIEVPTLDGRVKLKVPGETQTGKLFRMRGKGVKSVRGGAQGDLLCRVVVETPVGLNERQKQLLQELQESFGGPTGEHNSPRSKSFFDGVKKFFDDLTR

| stoichiometry N [1] | occupancy [3] [%] | Substance | other results |
| --- | --- | --- | --- |
| 1 TF per RNC |  | Trigger factor, wild type, recombinant (from UniProt P0A850 1-432) (natural protein) |  |
|  | < 10 | DnaJ (endogenous) (from UniProt P08622 1-376) (natural protein) |  |

Second part, the substance before the results:

| Substance | stoichiometry N [1] | occupancy [3] [%] | other results |
| --- | --- | --- | --- |
| DnaK, recombinant (from UniProt P0A6Y8 1-638) (natural protein) | 2 DnaK per NC |  | stoichiometry N [2]: 1 DnaK per NC; stoichiometry N (molecules of DnaK per NC) (longer NCs): 2 to 3 |
| DnaK (endogenous) (from UniProt P0A6Y8 1-638) (natural protein) |  | < 10 |  |
| RNC_(1-646) (complex) |  |  | pKd [4]: 7.68 |
